{"source": "FireProtDB (doi:10.1016/j.jmb.2005.09.091)", "proteins": {"B1": {"name": "Guanyl-specific ribonuclease Sa wild type, P05798 (protein)", "chain": "DVSGTVCLSALPPEATDTLNLIASDGPFPYSQDGVVFQNRESVLPTQSYGYYHEYTVITPGARTRGTRRIITGEATQEDYYTGDHYATFSLIDQTC"}}, "settings": "Kitasatospora aureofaciens, Thermal, CD, whole UniProt chain shown", "data": [{"protein": "B1", "values": [{"measurement": "Tm", "setting": "pH 3, Glycine 30 mM", "value": 39.9, "unit": "°C"}, {"measurement": "unfolding enthalpy (van 't Hoff)", "setting": "pH 3, Glycine 30 mM", "value": 81, "unit": "kcal/mol"}, {"measurement": "Tm", "setting": "pH 7, Mops 30 mM", "value": 47.8, "unit": "°C"}, {"measurement": "unfolding enthalpy (van 't Hoff)", "setting": "pH 7, Mops 30 mM", "value": 91, "unit": "kcal/mol"}, {"measurement": "Tm", "setting": "pH 8.5, Mops 30 mM", "value": 38.7, "unit": "°C"}, {"measurement": "unfolding enthalpy (van 't Hoff)", "setting": "pH 8.5, Mops 30 mM", "value": 84, "unit": "kcal/mol"}]}]}
